# B1: AM1-4 IgG1 (monospecific nanobody-based human IgG1) (Fc fusion)
# chain: QVQLVESGGGLVQAGGSLRLSCAASGRTFSRYAMGWFRQAPGKEREFVSAISGSGGFTDYADSVKGRFTISRDNAKSTVYLRMSSLKPEDTAVYYCAAEGSRGSSTRLDARGTYDYWGQGTQVTVS
# B2: nanobody AM1-21 (VHH, not shown: small tags and cut ends)
# VHH: QVQLVESGGGLVQAGGSLRLSCAASGFTLDYYAIGWFRQAPGKEREGVSCITSYDDSTYYTDSVKGRFTISRDNAKNTVYLQMNSLKPEDTAVYYCAAVGTWYLVNWWAPSEYDYWGQGTQVTVS
# notes: also called A7
# B3: AM1-21 IgG1 (nanobody-based human IgG1) (Fc fusion)
# chain: B2 VHH
# B4: nanobody AM2-C2 (VHH, not shown: small tags and cut ends)
# VHH: EVQLQESGGGLVQPGGSLRLSCAASGTTINIGAARWYRQAPGKQREVVAGISFGGATNYIDSVKGRFTISRGDALNTWYLQMNNLKPEDTAVYYCNARGEWGQGTQVAVS
# B5: AM1-1 IgG1 (monospecific nanobody-based human IgG1) (Fc fusion)
# chain: QVQLVETGGGLVQAGGSLRLSCATSGTIFSRATMAWYRQTPGKQREWVTTITTSGNTNYADSVKGRFTISRDNAESTLYLQMNSLKPEDTAVYYCNAQFLSSRTNYWGKGTQVTVS
# B6: mix of the two monospecific nanobody-based human IgG1 (AM1-1 IgG1 and AM1-4 IgG1) (other)
# chain 1: B5 chain
# chain 2: B1 chain
# B7: nanobody AM1-22 (VHH, not shown: small tags and cut ends)
# VHH: QVQLVESGGGLVQAGGSLRLSCAASGSIFNWAWYRQFPGKQREWVATITSGGNTNLADSVKGRFTISLDNAKNTMYLQMNSLKPEDTAVYYCNSARFRNRDAIWGQGTQVTVS
# notes: also called B4
# B8: AM1-22 IgG1 (nanobody-based human IgG1) (Fc fusion)
# chain: B7 VHH
# B9: nanobody AM2-O2 (VHH, not shown: small tags and cut ends)
# VHH: EVQLQESGGGLVQAGGSLRLSCAASGDTICISAMGWYRQAPGKERELVAVITSADSTNYADSVKGRFTISRAGAKNTLYLQMNSLKPEDTAVYYCNAHTPKYSDFEVTCYEYDYWGQGTLVSVS
# Columns and labels:
# [1] = molecular target: T1, native Api m 1 (nApi m 1), phospholipase A2 from honeybee venom (Apis mellifera, UniProt P00630 34-167)
# T1 sequence (P00630 34-167): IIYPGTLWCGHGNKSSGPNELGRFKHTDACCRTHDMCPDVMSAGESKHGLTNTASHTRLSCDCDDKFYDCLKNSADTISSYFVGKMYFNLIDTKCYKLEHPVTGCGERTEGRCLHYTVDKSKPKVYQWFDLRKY
# [2] = molecular target: T1, native Api m 1 (nApi m 1), …; test: cell-based or functional assay
# [3] = molecular target: T1, native Api m 1 (nApi m 1), …; test: monoclonal phage ELISA (phage-displayed nanobody) on immobilized Api m 1 or AM1-4 IgG/Api m 1 complexes; positive clones
# Experimental: Enrichment of the nanobody phage library was assessed in ELISA by measuring the immunoreactivity of polyclonal phages (A). Binding of phages to immobilized Api m 1 or AM1-4 IgG/Api m 1 complexes was detected using a biotinylated anti-M13 antibody. Data are mean±s.d. of duplicates. Immunoreactivity of monoclonal phages was analyzed in ELISA as above (B). Data are single measurements.
# After two rounds of selection the polyclonal phages were assessed for binding to Api m 1 by ELISA. Briefly, micro well plates were coated with 2 μg/ml Api m 1 or 10 μg/ml AM1-4IgG diluted in PBS at 4° C. o.n. After blocking for 30 min with TBS containing 4% skimmed milk powder, the wells were incubated with 2 μg/ml Api m 1 for 1 h at room temperature. After formation of AM1-4 IgG/Api m 1 complexes, polyclonal phages (1×10¹² phages/ml) were incubated in the wells for 2 h at room temperature. After washing, bound phages were detected with biotinylated anti-M13 antibody (Invitrogen) and AP-conjugated ExtrAvidin. For assessment of monoclonal phages, E. coli ER2738 infected with polyclonal phages were plated and individual colonies were picked and expanded for monoclonal phage propagation. Monoclonal phages were assessed by ELISA as described above.
# [4] = molecular target: T1, native Api m 1 (nApi m 1), …; test: BLI, compared with AM1-1 IgG1
# [5] = molecular target: recombinant Api m 2 (rApi m 2), venom hyaluronidase (honeybee, UniProt Q08169 34-382); test: ELISA, immobilized rApi m 2, purified nanobody
# Sequence of recombinant Api m 2 (rApi m 2), venom hyaluronidase (Q08169 34-382): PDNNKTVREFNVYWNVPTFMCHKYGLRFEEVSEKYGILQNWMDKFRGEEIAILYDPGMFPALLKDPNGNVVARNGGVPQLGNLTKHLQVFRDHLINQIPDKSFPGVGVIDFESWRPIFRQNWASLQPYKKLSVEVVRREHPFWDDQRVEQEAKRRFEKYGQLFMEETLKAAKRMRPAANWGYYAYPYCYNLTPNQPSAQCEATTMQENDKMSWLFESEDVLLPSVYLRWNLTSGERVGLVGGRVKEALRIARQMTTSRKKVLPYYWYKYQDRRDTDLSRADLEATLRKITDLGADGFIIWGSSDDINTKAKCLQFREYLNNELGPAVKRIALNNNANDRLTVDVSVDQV
# Experimental: (A) Binding to immobilized Api m 1 was detected using anti-V5 antibody. […] (B) Binding to immobilized rApi m 2 was detected using mouse anti-penta-His and AP-conjugated rabbit anti-mouse IgG antibody.
# The immunoreactivity of expressed nanobodies was assessed by ELISA. Briefly, micro well plates were coated with 10 μg/ml nApi m 1 or rApi m 2 diluted in PBS at 4° C. o.n. After blocking for 1 h with PBS containing 4% skimmed milk powder, purified nanobodies were incubated in the wells for 2-3 h at rt. shaking. After washing, nanobodies were detected with rabbit anti-V5 antibody (antibodies-online) and AP-conjugated goat anti-rabbit IgG antibody (Sigma) or with mouse anti-penta-His and AP-conjugated rabbit anti-mouse IgG antibody (Sigma).
Binder,Kd [1] [pM],"inhibition of basophil activation (CD63 positive), Patient 1 [2] [%]","inhibition of basophil activation (CD63 positive), Patient 2 [2] [%]",also measured
B1,300,44,23,–
B2,–,–,–,binding result [3]: binds
B3,15.3,–,–,fold higher affinity than AM1-1 IgG1 [4]: ~100 fold
B4,–,–,–,binding result [5]: binds
B5,1940,16,7,–
B6,–,69,38,–
B7,–,–,–,binding result [3]: binds
B8,< 1,–,–,fold higher affinity than AM1-1 IgG1 [4]: ~100 fold
B9,–,–,–,binding result [5]: binds

# Source: patent publication US20250206812A1 (AARHUS UNIVERSITET, published 2025)
